From PMC13050799

Assays:
[1] = dual luciferase reporter, HEPM; conditions: glycan lost; control: MEIS2-WT in shOGT HEPM cells
[2] = anti-MEIS2 or anti-HA IP, ubiquitin blot; conditions: control: DMSO
[3] = CHX chase, immunoblot, endogenous MEIS2 in HEPM; conditions: control: DMSO
[4] = Western blot of MEIS2 ± MG132, HEPM; conditions: glycan lost; control: DMSO

B1: MEIS2: S237A (protein)
parent chain: MAQRYDELPHYGGMDGVGVPASMYGDPHAPRPIPPVHHLNHGPPLHATQHYGAHAPHPNVMPASMGSAVNDALKRDKDAIYGHPLFPLLALVFEKCELATCTPREPGVAGGDVCSSDSFNEDIAVFAKQVRAEKPLFSSNPELDNLMIQAIQVLRFHLLELEKVHELCDNFCHRYISCLKGKMPIDLVIDERDGSSKSDHEELSGSSTNLADHNPSSWRDHDDATSTHSAGTPGPSSGGHASQSGDNSSEQGDGLDNSVASPGTGDDDDPDKDKKRQKKRGIFPKVATNIMRAWLFQHLTHPYPSEEQKKQLAQDTGLTILQVNNWFINARRRIVQPMIDQSNRAGFLLDPSVSQGAAYSPEGQPMGSFVLDGQQHMGIRPAGLQSMPGDYVSQGGPMGMSMAQPSYTPPQMTPHPTQLRHGPPMHSYLPSHPHHPAMMMHGGPPTHPGMTMSAQSPTMLNSVDPNVGGQVMDIHAQ
With B1 the “other: transcriptional activation of promoter” value [1] was “decreases”.

B2: MEIS2: Thiamet G (protein)
parent chain: B1 parent chain
For B2, the “other: ubiquitination” value ([2]; glycan gained) was “decreases” and the degradation_or_half_life ([3]; glycan gained) was “increases”.

B3: MEIS2: OSMI-1 (protein)
parent chain: B1 parent chain
For B3, the expression_or_secretion [4] was “decreases”, the “other: ubiquitination” value ([2]; glycan lost) was “increases” and the degradation_or_half_life ([3]; glycan lost) was “decreases”.
